{"source": "patent CN105713087A", "about": "(BEIJING HEALTH GUARDS BIOTECHNOLOGY CO LTD, dated 2016)", "binders": {"B1": {"name": "单克隆抗体2F7 (杂交瘤细胞株2F7, CGMCC No.11295) (antibody, V domains shown)", "VH": "VQLQQSGPGLVQPSQSLSITCTVSGFSLTSYGVHWVRQSPGKGLEWLGVIWSGGSTDYNAAFISRLSISKDNSKSQVFFKMNSLQANDTAIYYCARRDGNSRYAMDYWGQGTTVTVSS", "VL": "DIQLTQSPSSMSASLGDRITITCQATQDIVKNLNWYQQKPGKPPSFLIYYATELAEGVPSRFSGSGSGSDYSLTISNLESEDFADYYCLQFYEFPLTFGAGTKLEI", "notes": "also called 克隆2F7"}}, "key": {"[1]": {"target": "T1, HPV-18 L1 VLP (human papillomavirus type 18, UniProt P06794 62-568)", "T1 construct": "also called HPV18VLP", "T1 sequence": "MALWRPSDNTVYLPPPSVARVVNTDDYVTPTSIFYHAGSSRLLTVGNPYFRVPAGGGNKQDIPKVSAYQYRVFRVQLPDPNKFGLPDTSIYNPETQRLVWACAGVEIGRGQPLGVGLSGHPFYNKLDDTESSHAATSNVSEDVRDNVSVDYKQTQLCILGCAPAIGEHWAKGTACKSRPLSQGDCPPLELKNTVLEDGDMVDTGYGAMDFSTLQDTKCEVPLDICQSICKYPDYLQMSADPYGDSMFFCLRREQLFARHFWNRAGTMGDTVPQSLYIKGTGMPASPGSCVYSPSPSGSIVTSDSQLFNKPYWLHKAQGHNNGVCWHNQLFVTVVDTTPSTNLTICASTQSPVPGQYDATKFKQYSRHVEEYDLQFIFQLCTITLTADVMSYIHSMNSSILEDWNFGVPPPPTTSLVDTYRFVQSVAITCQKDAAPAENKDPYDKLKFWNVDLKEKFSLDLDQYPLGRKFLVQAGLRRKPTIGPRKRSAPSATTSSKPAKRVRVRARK", "test": "indirect ELISA on coated VLP"}, "[2]": {"target": "T2, HPV-16 L1 VLP (human papillomavirus type 16, UniProt P03101 1-505)", "T2 construct": "also called HPV16VLP", "T2 sequence": "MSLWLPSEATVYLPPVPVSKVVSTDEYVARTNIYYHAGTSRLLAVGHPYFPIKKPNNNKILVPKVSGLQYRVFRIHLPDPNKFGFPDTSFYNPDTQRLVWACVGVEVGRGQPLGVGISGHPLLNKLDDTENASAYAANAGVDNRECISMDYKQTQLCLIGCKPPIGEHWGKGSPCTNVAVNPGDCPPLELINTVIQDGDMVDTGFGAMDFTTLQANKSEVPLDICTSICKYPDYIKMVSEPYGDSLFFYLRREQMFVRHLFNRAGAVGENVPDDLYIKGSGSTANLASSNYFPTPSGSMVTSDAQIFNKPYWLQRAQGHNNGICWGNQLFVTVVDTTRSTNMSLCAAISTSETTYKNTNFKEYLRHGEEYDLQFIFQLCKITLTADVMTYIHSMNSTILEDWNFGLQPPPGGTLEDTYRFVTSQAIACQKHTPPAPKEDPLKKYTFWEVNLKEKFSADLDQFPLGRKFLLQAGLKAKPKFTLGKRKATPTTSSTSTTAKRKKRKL", "test": "indirect ELISA on coated VLP"}, "[3]": {"target": "T3, HPV45 VLP (human papillomavirus type 45, UniProt P36741 27-539)", "T3 sequence": "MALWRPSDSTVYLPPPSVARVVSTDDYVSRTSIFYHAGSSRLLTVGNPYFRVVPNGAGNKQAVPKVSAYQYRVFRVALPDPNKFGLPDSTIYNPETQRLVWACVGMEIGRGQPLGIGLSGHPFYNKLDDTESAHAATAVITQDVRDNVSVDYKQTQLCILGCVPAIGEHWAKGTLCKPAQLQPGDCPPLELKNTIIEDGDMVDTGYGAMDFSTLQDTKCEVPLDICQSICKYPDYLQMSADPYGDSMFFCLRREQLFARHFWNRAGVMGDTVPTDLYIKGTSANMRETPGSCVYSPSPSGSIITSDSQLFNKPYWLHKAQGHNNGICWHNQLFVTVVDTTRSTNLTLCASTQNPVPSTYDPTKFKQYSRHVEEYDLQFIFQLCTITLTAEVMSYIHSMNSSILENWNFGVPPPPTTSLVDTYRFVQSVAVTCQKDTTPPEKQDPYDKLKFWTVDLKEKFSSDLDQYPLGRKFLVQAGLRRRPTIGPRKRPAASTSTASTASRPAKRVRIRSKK", "test": "SPR (BIACORE 3000)"}, "[4]": {"target": "T4, HPV31 VLP (human papillomavirus type 31, UniProt P17388 1-504)", "T4 sequence": "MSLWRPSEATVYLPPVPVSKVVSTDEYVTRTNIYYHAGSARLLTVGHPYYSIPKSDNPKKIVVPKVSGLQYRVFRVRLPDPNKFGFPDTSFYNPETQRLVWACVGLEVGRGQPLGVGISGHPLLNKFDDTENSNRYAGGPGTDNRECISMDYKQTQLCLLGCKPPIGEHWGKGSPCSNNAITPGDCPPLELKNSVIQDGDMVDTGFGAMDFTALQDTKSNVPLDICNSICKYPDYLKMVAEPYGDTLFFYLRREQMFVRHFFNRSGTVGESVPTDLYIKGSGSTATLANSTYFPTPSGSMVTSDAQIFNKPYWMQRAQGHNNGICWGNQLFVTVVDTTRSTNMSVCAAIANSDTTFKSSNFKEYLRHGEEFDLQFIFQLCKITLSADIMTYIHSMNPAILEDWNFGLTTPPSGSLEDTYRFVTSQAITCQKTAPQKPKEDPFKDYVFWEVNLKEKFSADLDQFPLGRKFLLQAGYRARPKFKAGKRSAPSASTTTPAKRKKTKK", "test": "SPR (BIACORE 3000)"}, "[5]": {"target": "T5, HPV11 VLP (human papillomavirus type 11, UniProt P04012 1-501)", "T5 sequence": "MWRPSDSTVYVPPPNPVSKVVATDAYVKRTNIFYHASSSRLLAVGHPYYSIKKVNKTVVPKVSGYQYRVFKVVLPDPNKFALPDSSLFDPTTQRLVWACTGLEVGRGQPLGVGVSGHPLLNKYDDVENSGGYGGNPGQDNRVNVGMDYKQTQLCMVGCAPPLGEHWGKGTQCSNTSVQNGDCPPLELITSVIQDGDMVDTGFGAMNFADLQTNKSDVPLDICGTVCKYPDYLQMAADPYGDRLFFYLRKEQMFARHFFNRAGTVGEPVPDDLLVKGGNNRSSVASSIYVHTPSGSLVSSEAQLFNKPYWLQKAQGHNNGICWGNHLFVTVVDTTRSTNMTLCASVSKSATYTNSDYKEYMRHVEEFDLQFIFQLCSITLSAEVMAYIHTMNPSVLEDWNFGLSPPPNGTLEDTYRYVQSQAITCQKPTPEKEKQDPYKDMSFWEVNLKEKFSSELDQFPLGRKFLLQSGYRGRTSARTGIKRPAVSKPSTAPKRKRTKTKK", "test": "SPR (BIACORE 3000)"}, "[6]": {"target": "T6, HPV6 VLP (human papillomavirus type 6, UniProt P69899 1-500)", "T6 sequence": "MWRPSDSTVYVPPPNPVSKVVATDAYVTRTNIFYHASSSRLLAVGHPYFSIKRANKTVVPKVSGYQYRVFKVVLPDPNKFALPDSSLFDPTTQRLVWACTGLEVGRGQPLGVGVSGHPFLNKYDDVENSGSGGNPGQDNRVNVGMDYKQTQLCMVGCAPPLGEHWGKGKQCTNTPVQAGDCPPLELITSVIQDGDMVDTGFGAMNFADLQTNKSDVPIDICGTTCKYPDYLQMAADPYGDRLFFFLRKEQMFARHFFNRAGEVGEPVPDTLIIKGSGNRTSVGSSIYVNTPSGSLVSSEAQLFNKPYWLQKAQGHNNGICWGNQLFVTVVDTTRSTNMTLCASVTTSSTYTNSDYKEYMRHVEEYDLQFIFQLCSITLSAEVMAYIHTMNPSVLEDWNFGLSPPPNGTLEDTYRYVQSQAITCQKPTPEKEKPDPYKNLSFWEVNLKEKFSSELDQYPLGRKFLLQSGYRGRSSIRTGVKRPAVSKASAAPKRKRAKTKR", "test": "SPR (BIACORE 3000)"}}}
{"binder": "B1", "values": [{"measurement": "binding result", "setting": "[1]", "result": "no binding (tested: 0.3μg/ml)"}, {"measurement": "binding result", "setting": "[2]", "result": "no binding (tested: 0.3μg/ml)"}, {"measurement": "binding result", "setting": "[3]", "result": "no binding (tested: 20nmol/L)"}, {"measurement": "binding result", "setting": "[4]", "result": "no binding (tested: 20nmol/L)"}, {"measurement": "binding result", "setting": "[5]", "result": "no binding (tested: 20nmol/L)"}, {"measurement": "binding result", "setting": "[6]", "result": "no binding (tested: 20nmol/L)"}]}
